# According to US20240016931A1 (JIANGSU HENGRUI PHARMACEUTICALS, published 2024):
# Changes are numbered by the printed parent chain. In names and notes the source's numbering stands.
# B1: Ch119 (antibody, human IgG1, kappa, V domains shown)
# VH: QAYLQQSGAELVRPGASVKMSCKASGFAFTTYNMHWVKHTPGQGLEWIGAIYPGNGETSYNQKFKDRATLTVDKSSRTAYMQLSSLTSEDSAVYFCAREDDYGEGYFDVWGAGTTVTVSS
# VL: DIVLTQSPASLAVSLGQRATISCRASESVDNSGLSFMHWYQQKPGQPPRLLLYRASNLGSGIPARFSGSGSGTDFTLTLNPVETDDVATYYCQQINTDPLTFGAGTKLELKR
# notes: murine variable regions on human IgG1-YTE / kappa; also called chimeric antibody corresponding to mab119
# B2: Ch3 (antibody, human IgG1, kappa, V domains shown)
# VH: EVQLQQSGPVLVKPGASVKMSCKASGYTFTDDYMNWVKQSHGKSLEWIGIISPYNGGTSYNQKFKGKATLTVDKSSSTAYMELNSLTSEDSAVYYCAREDYDYDGYAMDHWGQGTSVTVSS
# VL: QIVLSQSPAILSASPGEKVTMTCRASSSVSYMHWYQQKPGSSPKPWIYATSNLASGVPARFSGSGSGTSYSLTISRVEAEDAATYYCQQWSSNRTFGGGTKLEIKR
# notes: murine variable regions on human IgG1-YTE / kappa; also called chimeric antibody corresponding to mab3
# B3: hu119-23 (antibody, human IgG1, kappa, V domains shown)
# VH: EVQLVQSGAEVKKPGSSVKVSCKASGFTFSTYNMHWVKHAPGQGLEWIGAIYPGNGETSYNQKFKDRATLTVDKSTSTAYMELSSLRSEDTAVYYCAREDDYGEGYFDVWGQGTTVTVSS
# VL: DIVLTQSPATLSLSPGERATLSCRASESVDNSGLSFMHWYQQKPGQPPRLLLYRASNLGSGIPARFSGSGSGTDFTLTISSLEPEDFAVYYCQQINTDPLTFGQGTKLEIKR
# notes: IgG1-YTE, kappa
# B4: hu119-26 (antibody, human IgG1, kappa)
# heavy: EVQLVQSGAEVKKPGSSVKVSCKASGGTFSTYNMHWVRQAPGQGLEWIGAIYPGNGETSYNQKFKDRATLTVDKSTRTAYMELSSLRSEDTAVYYCAREDDYGEGYFDVWGQGTTVTVSSASTKGPSVFPLAPSSKSTSGGTAALGCLVKDYFPEPVTVSWNSGALTSGVHTFPAVLQSSGLYSLSSVVTVPSSSLGTQTYICNVNHKPSNTKVDKKVEPKSCDKTHTCPPCPAPELLGGPSVFLFPPKPKDTLYITREPEVTCVVVDVSHEDPEVKFNWYVDGVEVHNAKTKPREEQYNSTYRVVSVLTVLHQDWLNGKEYKCKVSNKALPAPIEKTISKAKGQPREPQVYTLPPSRDELTKNQVSLTCLVKGFYPSDIAVEWESNGQPENNYKTTPPVLDSDGSFFLYSKLTVDKSRWQQGNVFSCSVMHEALHNHYTQKSLSLSPGK
# light: DIVLTQSPATLSLSPGERATLSCRASESVDNSGLSFMHWYQQKPGQPPRLLLYRASNLGSGIPARFSGSGSGTDFTLTISSLEPEDFAVYYCQQINTDPLTFGQGTKLEIKRTVAAPSVFIFPPSDEQLKSGTASVVCLLNNFYPREAKVQWKVDNALQSGNSQESVTEQDSKDSTYSLSSTLTLSKADYEKHKVYACEVTHQGLSSPVTKSFNRGEC
# notes: IgG1-YTE, kappa
# B5: hu119-25 (antibody, human IgG1, kappa)
# heavy: B4 heavy with V2A, G27F, R77S
# light: B4 light
# notes: IgG1-YTE, kappa
# B6: hu119-24 (antibody, human IgG1, kappa)
# heavy: B4 heavy with R77S
# light: B4 light
# notes: IgG1-YTE, kappa
# B7: hu119-27 (antibody, human IgG1, kappa)
# heavy: B4 heavy with V2A, G27F
# light: B4 light
# notes: IgG1-YTE, kappa
# B8: Ch179 (antibody, human IgG1, kappa, V domains shown)
# VH: QVQLQQSGAELVRPGTSVKVSCKASGYAFTNYLIEWVKQRPGQGLEWIGVIDPGNGDTNYNENFKGKATLTADKSSSTAYIELSRLTSEDSAVYFCAREDNTGTAFDYWGQGTTLTVSS
# VL: SIVMTQTPKFLLVSAGDRVTISCKASQSVSSDVTWYQQKPGQSPKLLIYYVSNHYTGVPDRFTGSGYGTDFTFTISSVQAEDLAVYFCQQHHRFPLTFGAGTKLELKR
# notes: murine variable regions on human IgG1-YTE / kappa; also called chimeric antibody corresponding to mab179
# B9: hu119-02 (antibody, human IgG1, kappa)
# heavy: B4 heavy with G27F, I48M, A68V, R77S
# light: DIVMTQSPDSLAVSLGERATINCRASESVDNSGLSFMHWYQQKPGQPPKLLIYRASNLGSGVPDRFSGSGSGTDFTLTISSLQAEDVAVYYCQQINTDPLTFGQGTKLEIKRTVAAPSVFIFPPSDEQLKSGTASVVCLLNNFYPREAKVQWKVDNALQSGNSQESVTEQDSKDSTYSLSSTLTLSKADYEKHKVYACEVTHQGLSSPVTKSFNRGEC
# notes: IgG1-YTE, kappa
# B10: hu119-08 (antibody, human IgG1, kappa)
# heavy: B4 heavy with G27F, R38K, Q39H, R77S
# light: B9 light with M4L
# notes: IgG1-YTE, kappa
# B11: hu119-09 (antibody, human IgG1, kappa, V domains shown)
# VH: B3 VH with F27G, K38R, H39Q, I48M, A68V, L70I, V72A
# VL: DIVMTQSPDSLAVSLGERATINCRASESVDNSGLSFMHWYQQKPGQPPKLLLYRASNLGSGIPDRFSGSGSGTDFTLTISSLQAEDVAVYYCQQINTDPLTFGQGTKLEIKR
# notes: IgG1-YTE, kappa
# B12: hu119-29 (antibody, human IgG1, kappa, V domains shown)
# VH: B3 VH
# VL: B11 VL with M4L, N31Q, L52I, I62V
# notes: IgG1-YTE, kappa; also called hu119VH3 + hu119VL2-N31Q
# B13: hu119-05 (antibody, human IgG1, kappa)
# heavy: B4 heavy with I48M, A68V, L70I, V72A, R77S
# light: B9 light with M4L
# notes: IgG1-YTE, kappa
# B14: hu119-10 (antibody, human IgG1, kappa, V domains shown)
# VH: B3 VH with K38R, H39Q, I48M, A68V
# VL: B11 VL
# notes: IgG1-YTE, kappa
# B15: hu119-04 (antibody, IgG1)
# heavy: B4 heavy with G27F, R38K, Q39H, R77S
# light: B9 light
# notes: IgG1-YTE, kappa
# B16: hu119-28 (antibody, human IgG1, kappa, V domains shown)
# VH: B3 VH
# VL: B11 VL with M4L, N31S, L52I, I62V
# notes: IgG1-YTE, kappa; also called hu119VH3 + hu119VL2-N31S
# B17: hu119-01 (antibody, human IgG1, kappa)
# heavy: B4 heavy with I48M, A68V, L70I, V72A, R77S
# light: B9 light
# notes: IgG1-YTE, kappa
# B18: hu119-12 (antibody, IgG1, V domains shown)
# VH: B3 VH
# VL: B11 VL
# notes: IgG1-YTE, kappa
# B19: hu119-06 (antibody, human IgG1, kappa)
# heavy: B4 heavy with G27F, I48M, A68V, R77S
# light: B9 light with M4L
# notes: IgG1-YTE, kappa
# Molecular target: T1, His-tagged human TSLP antigen (huTSLP-his) (human)
# T1 construct: Secreted from HEK293E and purified on nickel; whole entry named; also called Human TSLP-his
# Experiment: ELISA, coated huTSLP-his;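 also: binding of antibodies to plate-bound TSLP read as absorbance at 450 nm after TMB colour development, EC50 derived from binding curves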
# Procedure: The plate was incubated at 4° C. overnight. After the liquid was discarded, 5% skim milk (skim milk powder from Brightdairy) blocking solution diluted with PBS was added at 200 μL/well, and the plate was incubated in an incubator at 37° C. for 2 h for blocking. After the blocking, the blocking solution was discarded, and the plate was washed 3 times with a PBST buffer (PBS containing 0.1% (v/v) tween-20, pH 7.4). […] After the incubation, the plate was washed 3 times with PBST. […] After the plate was washed 6 times with PBST, a TMB chromogenic substrate (KPL, 52-00-03) was added at 50 μL/well, and the plate was incubated at room temperature for 10-15 min. Then, 1 M H₂SO₄ was added at 50 μL/well to stop the reaction. The absorbance at 450 nm was read with a NOVOStar microplate reader, and the EC₅₀ values for the binding of the TSLP antibodies to TSLP were calculated.
row,Binder,EC50
1,B1,0.851 nM
2,B2,0.493 nM
3,B3,0.34 nM
4,B4,0.378 nM
5,B5,0.357 nM
6,B6,0.345 nM
7,B7,0.335 nM
8,B8,0.202 nM
9,B9,0.194 nM
10,B10,0.202 nM
11,B11,0.149 nM
12,B12,0.273 nM
13,B13,0.144 nM
14,B14,0.233 nM
15,B15,0.188 nM
16,B16,0.265 nM
17,B17,0.107 nM
18,B18,0.203 nM
19,B19,0.221 nM
